In the supplement of paper PMC7877785:
± gives the uncertainty stated by the source.

Test: self-splicing fitness, log relative to wild type (ln ratio); higher = more splicing; Tetrahymena group I intron in knt gene, E. coli kanamycin selection, DiMSum; sequences stand for … in CUCUCU…GGAGGGAAAAGUUAUCAGGCAUGCACCUGGUAGCUAGUCUUUAAACCAAUAGAUUGCAUCGGUUUAAAAGGCAAGACCGUCAAAUUGCGGGAAAGGGGUCAACAGCCGUUCAGUACCAAGUCUCAGGGGAAACUUUGAGAUGGCCUUGCAAAGGGUAUGGUAAUAAGCUGACGGACAUGGUCCUAACCACGCAGCCAAGUCCUAAGUCAACAGAUCUUCUGUUGAUAUGGAUGCAGUUCACAGACUAAAUGUCGGUCGGGGAAGAUGUAUUCUUCUCAUAAGAUAUAGUCGGACCUCUCCUUAAUGGGAGCUAGCGGAUGAAGUGAUGCAACACUGGAGCCGCUGGGAACUAAUUUGUAUGCGAAAGUAUAUUGAUUAGUUUUGGAGUACUCGUGGUCG
In short: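 Pooled colonies went to amplicon sequencing on an Illumina HiSeq 2500 after six replicate transformations. The plates were LB agar with 100 μg/mL carbenicillin, 50 μM IPTG and 0.2% rhamnose, with or without 25 μg/mL kanamycin, incubated overnight at 37°C or 30°C. The E. coli BL21(DE3) library had all eight P1ex-region intron nucleotides randomised, the intron placed in the knt kanamycin-resistance gene on pET-22b(+). DiMSum fitness is the error-weighted combination of replicate fold changes, kanamycin against none, normalised to wild type.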

Sequence | self-splicing fitness (ln) (30 °C) | self-splicing fitness (ln) (37 °C)
AAAAAGCAAUAUUACGAUUU | 0.149 ± 0.074 | 0.324 ± 0.095
GCUUAGCAAUAUUACGUCGG | -1.89 ± 0.13 | -1.75 ± 0.18
UUCAAGCAAUAUUACGGCGA | 0.0413 ± 0.081 | 0.263 ± 0.11
CCCAAGCAAUAUUACGAGCA | -3.01 ± 0.24 | -2.95 ± 0.25
CCGCAGCAAUAUUACGUUAA | -3.03 ± 0.18 | -2.1 ± 0.2
CUCCAGCAAUAUUACGUAGA | -3.31 ± 0.15 | -2.58 ± 0.16
CCUGAGCAAUAUUACGACAG | -1.3 ± 0.14 | -0.663 ± 0.15
UUGUAGCAAUAUUACGCGUU | -2.56 ± 0.23 | -1.64 ± 0.33
ACGAAGCAAUAUUACGUGGC | -2.97 ± 0.11 | -2.04 ± 0.14
GUUAAGCAAUAUUACGCCCG | -0.342 ± 0.39 | -1.05 ± 0.45
CCUGAGCAAUAUUACGAAGA | -1.76 ± 0.18 | -1.69 ± 0.19
UCAAAGCAAUAUUACGCUGA | -3.43 ± 0.29 | -1.62 ± 0.23
UGACAGCAAUAUUACGUAAA | -1.01 ± 0.08 | -1.26 ± 0.11
GAUCAGCAAUAUUACGCAUA | -0.521 ± 0.082 | -0.0106 ± 0.084
GGACAGCAAUAUUACGGACG | -0.636 ± 0.12 | -0.327 ± 0.12
UCUUAGCAAUAUUACGAAAG | -2.07 ± 0.35 | -1.12 ± 0.34
CUAAAGCAAUAUUACGCAAA | -3.47 ± 0.25 | 
CGCCAGCAAUAUUACGUCAG | -0.444 ± 0.073 | 0.203 ± 0.095
CACGAGCAAUAUUACGUGGC | -4.09 ± 0.37 | -2.13 ± 0.21
AGUGAGCAAUAUUACGUAAU | -3.13 ± 0.15 | -1.7 ± 0.15
UAGUAGCAAUAUUACGCUCG | 0.127 ± 0.15 | 0.103 ± 0.19
GGAAAGCAAUAUUACGGAGA | -1.97 ± 0.27 | -2.54 ± 0.26
ACGUAGCAAUAUUACGCAAA | -1.78 ± 0.21 | -2.42 ± 0.3
AUACAGCAAUAUUACGGCCU | -0.505 ± 0.093 | 0.263 ± 0.1
GGUGAGCAAUAUUACGGCGG | -3.44 ± 0.23 | -1.73 ± 0.35
AAUAAGCAAUAUUACGCAGA | -3.73 ± 0.3 | -2.38 ± 0.23

Sequence | self-splicing fitness (ln) (30 °C) | self-splicing fitness (ln) (37 °C)
AGUGAGCAAUAUUACGUUGC | -3.28 ± 0.2 | -2.18 ± 0.24
ACUAAGCAAUAUUACGCACC | -0.776 ± 0.12 | -0.198 ± 0.13
UAAAAGCAAUAUUACGCGAU | -3.3 ± 0.17 | -2.51 ± 0.2
GUCAAGCAAUAUUACGAUUU | -0.962 ± 0.08 | -1.42 ± 0.11
ACAUAGCAAUAUUACGCUUG | -1.76 ± 0.11 | -1.28 ± 0.14
GGUUAGCAAUAUUACGGCCG | -0.999 ± 0.19 | -0.019 ± 0.25
UAUAAGCAAUAUUACGUGCU | -2.56 ± 0.16 | -1.32 ± 0.15
CUUCAGCAAUAUUACGCUAG | -3.22 ± 0.26 | -1.34 ± 0.19
GGGGAGCAAUAUUACGCACU | -3.29 ± 0.36 | 
UGAAAGCAAUAUUACGCCUG | -0.546 ± 0.11 | -0.244 ± 0.12
UAAUAGCAAUAUUACGGACG | -0.227 ± 0.12 | 0.175 ± 0.15
AUUUAGCAAUAUUACGGUGC | -4.12 ± 0.46 | -1.55 ± 0.23
ACUCAGCAAUAUUACGUUAG | -2.98 ± 0.13 | -0.675 ± 0.11
CCCAAGCAAUAUUACGGGAA | -2.75 ± 0.17 | -1.96 ± 0.16
UCAAAGCAAUAUUACGGCGU | -0.917 ± 0.065 | -0.201 ± 0.086
GCCCAGCAAUAUUACGUUAU | -1.17 ± 0.079 | -1.29 ± 0.1
UAUGAGCAAUAUUACGUAUA | -2 ± 0.4 | -1.02 ± 0.28
GUGUAGCAAUAUUACGGGAU | -2.93 ± 0.17 | -2.18 ± 0.2
AAUGAGCAAUAUUACGGUCU | -1.96 ± 0.13 | -0.956 ± 0.13
CCGCAGCAAUAUUACGUUUG | -1.62 ± 0.065 | -1.36 ± 0.096
GUAGAGCAAUAUUACGACUU | -0.172 ± 0.081 | 0.104 ± 0.1
UCAUAGCAAUAUUACGGCGG | -0.555 ± 0.059 | 0.417 ± 0.074
AAGCAGCAAUAUUACGCCAG | -2.67 ± 0.36 | -1.43 ± 0.41
UAUGAGCAAUAUUACGGCGG | -3.22 ± 0.23 | -1.72 ± 0.26
GUUGAGCAAUAUUACGAUCA | -2.74 ± 0.37 | 0.523 ± 0.28
ACCGAGCAAUAUUACGAGAA |  | -1.8 ± 0.29

Sequence | self-splicing fitness (ln) (30 °C) | self-splicing fitness (ln) (37 °C)
CUCAAGCAAUAUUACGUCCU | -4 ± 0.27 | -2.79 ± 0.19
AGCUAGCAAUAUUACGCCGC | -2.36 ± 0.2 | -3.06 ± 0.47
CUUAAGCAAUAUUACGCGUA | -2.75 ± 0.34 | -3.23 ± 0.29
UUGAAGCAAUAUUACGCGCU | -1.72 ± 0.093 | -1 ± 0.13
GUGAAGCAAUAUUACGCUCG | -1.69 ± 0.11 | -0.267 ± 0.13
CCUAAGCAAUAUUACGGGGA | -2.84 ± 0.15 | -1.92 ± 0.13
GAGAAGCAAUAUUACGGUUA | -1.13 ± 0.12 | -0.315 ± 0.13
CUAGAGCAAUAUUACGUAAG | -0.628 ± 0.06 | 0.154 ± 0.089
GGUAAGCAAUAUUACGGCGC | 0.369 ± 0.14 | 0.841 ± 0.18
AAGUAGCAAUAUUACGUGAU | -2.24 ± 0.098 | -1.77 ± 0.12
GGCUAGCAAUAUUACGUUAC | -1.55 ± 0.069 | -0.888 ± 0.093
UGCUAGCAAUAUUACGAGCC | -0.0254 ± 0.11 | -0.681 ± 0.2
AUAGAGCAAUAUUACGUGUU | -3.73 ± 0.19 | -2.38 ± 0.18
UAGAAGCAAUAUUACGCUUA | -1.9 ± 0.15 | -0.832 ± 0.14
GAGCAGCAAUAUUACGUCCG | -0.984 ± 0.3 | -0.968 ± 0.41
UUCCAGCAAUAUUACGCUGA | -3.73 ± 0.24 | -1.91 ± 0.14
UGACAGCAAUAUUACGUGAG | -0.267 ± 0.028 | -0.365 ± 0.046
ACCGAGCAAUAUUACGGGAC | -2.88 ± 0.13 | -2.49 ± 0.18
UUCCAGCAAUAUUACGCAGA | -2.09 ± 0.21 | -1.32 ± 0.16
CAAUAGCAAUAUUACGUGGC | -3.53 ± 0.16 | -2.72 ± 0.2
AUGGAGCAAUAUUACGUAAG | -2.69 ± 0.2 | -0.735 ± 0.17
GUGGAGCAAUAUUACGAGGA | -3.96 ± 0.31 | -1.75 ± 0.19
AUAAAGCAAUAUUACGUUAG | -1.33 ± 0.067 | -0.504 ± 0.088
UGCCAGCAAUAUUACGCAAC |  | -0.966 ± 0.42
